{"source": "patent US20250215089A1", "about": "(HARBOUR BIOMED SHANGHAI, published 2025)", "binders": {"B1": {"name": "PR007280 (bispecific antibody, human IgG1, kappa)", "heavy": "QVQLVESGGGVVQPGMSLRLSCAASGFDFSSYGMYWVRQAPGKGQEWVASIRYTGTEKHYADSVKGRFTISRDNSKNTLYLEMNSLRVEDTAVYYCAKNRAIFGVVPDASDIRGQGTMVTVSSGGGGSQVQLVQSGAEVKKPGASVKVSCKASGYTFAGYYMYWVRQAPGQGLEWMGWINPDSGAPTYAQKFQGRVTMTRDTSISTAYMELSRLRSDDTAVYYCAREKIYYGSGNYYPSFDYWGQGTLVTVSSASTKGPSVFPLAPSSKSTSGGTAALGCLVKDYFPEPVTVSWNSGALTSGVHTFPAVLQSSGLYSLSSVVTVPSSSLGTQTYICNVNHKPSNTKVDKKVEPKSCDKTHTCPPCPAPEAAGAPSVFLFPPKPKDTLMISRTPEVTCVVVDVSHEDPEVKFNWYVDGVEVHNAKTKPREEQYNSTYRVVSVLTVLHQDWLNGKEYKCKVSNKALPAPIEKTISKAKGQPREPQVYTLPPSREEMTKNQVSLTCLVKGFYPSDIAVEWESNGQPENNYKTTPPVLDSDGSFFLYSKLTVDKSRWQQGNVFSCSVMHEALHNHYTQKSLSLSPGK", "light": "DIQLTQSPSFLSASVGDRVTITCRASQGISSYLAWYQQKPGKAPKLLIYAASTLQSGVPSRFSGSGSGTEFTLTISSLQPEDFATYYCQQLVSYPWTFGQGTKVEIKRTVAAPSVFIFPPSDEQLKSGTASVVCLLNNFYPREAKVQWKVDNALQSGNSQESVTEQDSKDSTYSLSSTLTLSKADYEKHKVYACEVTHQGLSSPVTKSFNRGEC", "notes": "VH of PR006245 (PD-L1) - GS_5 - heavy chain of CD40 IgG PR006504; human IgG1 L234A/L235A/G237A; also called PD-L1×CD40"}, "B2": {"name": "PR007281 (bispecific antibody, human IgG1, kappa)", "heavy": "QVQLVESGGGVVQPGMSLRLSCAASGFDFSSYGMYWVRQAPGKGQEWVASIRYTGTEKHYADSVKGRFTISRDNSKNTLYLEMNSLRVEDTAVYYCAKNRAIFGVIPDDSDIRGQGTMVTVSSGGGGSQVQLVQSGAEVKKPGASVKVSCKASGYTFAGYYMYWVRQAPGQGLEWMGWINPDSGAPTYAQKFQGRVTMTRDTSISTAYMELSRLRSDDTAVYYCAREKIYYGSGNYYPSFDYWGQGTLVTVSSASTKGPSVFPLAPSSKSTSGGTAALGCLVKDYFPEPVTVSWNSGALTSGVHTFPAVLQSSGLYSLSSVVTVPSSSLGTQTYICNVNHKPSNTKVDKKVEPKSCDKTHTCPPCPAPEAAGAPSVFLFPPKPKDTLMISRTPEVTCVVVDVSHEDPEVKFNWYVDGVEVHNAKTKPREEQYNSTYRVVSVLTVLHQDWLNGKEYKCKVSNKALPAPIEKTISKAKGQPREPQVYTLPPSREEMTKNQVSLTCLVKGFYPSDIAVEWESNGQPENNYKTTPPVLDSDGSFFLYSKLTVDKSRWQQGNVFSCSVMHEALHNHYTQKSLSLSPGK", "light": "DIQLTQSPSFLSASVGDRVTITCRASQGISSYLAWYQQKPGKAPKLLIYAASTLQSGVPSRFSGSGSGTEFTLTISSLQPEDFATYYCQQLVSYPWTFGQGTKVEIKRTVAAPSVFIFPPSDEQLKSGTASVVCLLNNFYPREAKVQWKVDNALQSGNSQESVTEQDSKDSTYSLSSTLTLSKADYEKHKVYACEVTHQGLSSPVTKSFNRGEC", "notes": "VH of PR006246 (PD-L1) - GS_5 - heavy chain of CD40 IgG PR006504; human IgG1 L234A/L235A/G237A; also called PD-L1×CD40"}}, "key": {"human PD-L1 [1]": {"target": "T1, human PD-L1 (human, UniProt Q9NZQ7 19-290)", "T1 construct": "whole, on cells; also called hPD-L1; CD274", "T1 sequence (Q9NZQ7 19-290)": "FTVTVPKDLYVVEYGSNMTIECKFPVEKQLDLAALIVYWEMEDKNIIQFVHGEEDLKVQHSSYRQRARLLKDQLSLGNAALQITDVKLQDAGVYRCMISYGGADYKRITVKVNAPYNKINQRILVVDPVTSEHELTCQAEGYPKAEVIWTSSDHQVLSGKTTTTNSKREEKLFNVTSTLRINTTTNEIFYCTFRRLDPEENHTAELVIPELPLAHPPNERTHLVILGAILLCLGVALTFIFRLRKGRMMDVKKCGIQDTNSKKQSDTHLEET", "experiment": "FACS, CHO-K1/hPD-L1 cells", "experimental": "(§1) Specifically, the cells expressing PD-L1 were digested and resuspended in PBS buffer containing 2% BSA. The cells were adjusted to a cell density of 1×10⁶ cells/mL, respectively. The cells were seeded in a 96-well V-bottom plate (Corning, #3894) at 100 μL/well, and the antibody to be tested at 2×final concentration with 4-fold concentration gradient dilution was then added at 100 μL/well. The cells were incubated at 4° C. for 2 hours in the dark. After the incubation, the cells were rinsed twice by adding pre-chilled PBS containing 2% BSA at 100 μL/well, and centrifuged at 500 g at 4° C. for 5 minutes, and the supernatant was discarded. […] The cells were washed twice by adding pre-chilled PBS containing 2% BSA at 100 µL/well, and centrifuged at 500 g at 4° C. for 5 minutes, and the supernatant was discarded. Finally, the cells were resuspended in pre-chilled PBS buffer containing 2% BSA at 200 μL/well. The fluorescence signal values were read using a BD FACS CANTOII flow cytometer or ACEA NovoCyte flow cytometer, and the data were processed and analyzed using FlowJo v10 software (FlowJo, LLC)."}, "cynomolgus monkey PD-L1": {"target": "T2, cynomolgus monkey PD-L1 (cynomolgus monkey)", "T2 construct": "whole, on cells; also called cyPD-L1", "experiment": "FACS, CHO-K1/cyPD-L1 cells", "experimental": "as §1"}, "human PD-L1 [2]": {"target": "T1, human PD-L1", "experiment": "FACS, NCI-H226 cells", "experimental": "as §1"}, "human PD-L1 [3]": {"target": "T1, human PD-L1", "experiment": "cell-based or functional assay"}, "cynomolgus monkey CD40": {"target": "T3, cynomolgus monkey CD40 (cynomolgus monkey)", "T3 construct": "whole, on cells; also called cyCD40", "experiment": "FACS, CHO-K1/cyCD40 cells", "experimental": "(§2) The cells were incubated at 4° C. for 1 hours in the dark. After the incubation, the cells were rinsed twice by adding pre-chilled PBS at 100 μL/well, and centrifuged at 500 g at 4° C. for 5 minutes, and the supernatant was discarded. Then, a fluorescent secondary antibody (goat anti-human IgG (H+L) secondary antibody, Alexa Fluor® 488 conjugate, Invitrogen, #A11013, 1:1000 dilution) was added at 100 μL/well, and the cells were incubated at 4° C. for 30 minutes in the dark. The cells were washed twice with pre-chilled PBS at 200 μL/well, and centrifuged at 500 g at 4° C. for 5 minutes, and the supernatant was discarded. Finally, the cells were resuspended in pre-chilled PBS at 200 μL/well. The fluorescence signal values were read using a BD FACS CANTOII flow cytometer or ACEA NovoCyte flow cytometer, and the data were processed and analyzed using FlowJo v10 software (FlowJo, LLC)."}, "human CD40 [4]": {"target": "T4, human CD40 (human, UniProt P25942 21-277)", "T4 construct": "whole, on cells; also called hCD40; TNFRSF5", "T4 sequence (P25942 21-277)": "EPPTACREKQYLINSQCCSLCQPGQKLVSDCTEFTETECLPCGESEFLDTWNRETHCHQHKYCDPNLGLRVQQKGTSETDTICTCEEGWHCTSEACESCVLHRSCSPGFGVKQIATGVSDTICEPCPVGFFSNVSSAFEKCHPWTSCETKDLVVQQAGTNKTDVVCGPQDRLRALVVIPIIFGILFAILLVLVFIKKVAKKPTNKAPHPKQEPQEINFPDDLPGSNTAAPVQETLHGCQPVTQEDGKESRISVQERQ", "experiment": "FACS, CHO-K1/hCD40 cells", "experimental": "as §2"}, "human CD40 [5]": {"target": "T4, human CD40", "experiment": "FACS, Raji cells", "experimental": "as §2"}}, "data": [{"binder": "B1", "values": [{"measurement": "EC50", "setting": "human PD-L1 [1]", "result": 1.58, "unit": "nM"}, {"measurement": "Maximum MFI", "setting": "human PD-L1 [1]", "result": 20200, "unit": "MFI"}, {"measurement": "EC50", "setting": "cynomolgus monkey PD-L1", "result": 1.02, "unit": "nM"}, {"measurement": "Maximum MFI", "setting": "cynomolgus monkey PD-L1", "result": 4830, "unit": "MFI"}, {"measurement": "EC50", "setting": "human PD-L1 [2]", "result": 1.02, "unit": "nM"}, {"measurement": "Maximum MFI", "setting": "human PD-L1 [2]", "result": 1020, "unit": "MFI"}, {"measurement": "EC50, Jurkat-NFAT-hPD1 reporter", "setting": "human PD-L1 [3]", "result": 0.295, "unit": "nM"}, {"measurement": "Maximum (RLU), Jurkat-NFAT-hPD1 reporter", "setting": "human PD-L1 [3]", "result": 2560, "unit": "RLU"}, {"measurement": "EC50", "setting": "cynomolgus monkey CD40", "result": 2.65, "unit": "nM"}, {"measurement": "Maximum MFI", "setting": "cynomolgus monkey CD40", "result": 50100, "unit": "MFI"}, {"measurement": "EC50", "setting": "human CD40 [4]", "result": 3.83, "unit": "nM"}, {"measurement": "Maximum MFI", "setting": "human CD40 [4]", "result": 15000, "unit": "MFI"}, {"measurement": "EC50", "setting": "human CD40 [5]", "result": 1.65, "unit": "nM"}, {"measurement": "Maximum MFI", "setting": "human CD40 [5]", "result": 7700, "unit": "MFI"}]}, {"binder": "B2", "values": [{"measurement": "EC50", "setting": "human PD-L1 [1]", "result": 1.13, "unit": "nM"}, {"measurement": "Maximum MFI", "setting": "human PD-L1 [1]", "result": 19900, "unit": "MFI"}, {"measurement": "EC50", "setting": "cynomolgus monkey PD-L1", "result": 0.632, "unit": "nM"}, {"measurement": "Maximum MFI", "setting": "cynomolgus monkey PD-L1", "result": 4610, "unit": "MFI"}, {"measurement": "EC50", "setting": "human PD-L1 [2]", "result": 0.503, "unit": "nM"}, {"measurement": "Maximum MFI", "setting": "human PD-L1 [2]", "result": 921, "unit": "MFI"}, {"measurement": "EC50, Jurkat-NFAT-hPD1 reporter", "setting": "human PD-L1 [3]", "result": 0.19, "unit": "nM"}, {"measurement": "Maximum (RLU), Jurkat-NFAT-hPD1 reporter", "setting": "human PD-L1 [3]", "result": 3840, "unit": "RLU"}, {"measurement": "EC50", "setting": "cynomolgus monkey CD40", "result": 3.63, "unit": "nM"}, {"measurement": "Maximum MFI", "setting": "cynomolgus monkey CD40", "result": 65000, "unit": "MFI"}, {"measurement": "EC50", "setting": "human CD40 [4]", "result": 2.13, "unit": "nM"}, {"measurement": "Maximum MFI", "setting": "human CD40 [4]", "result": 14200, "unit": "MFI"}, {"measurement": "EC50", "setting": "human CD40 [5]", "result": 1.46, "unit": "nM"}, {"measurement": "Maximum MFI", "setting": "human CD40 [5]", "result": 7600, "unit": "MFI"}]}]}
